These results are taken from patent US20220119534A1 (DRAGONFLY THERAPEUTICS, published 2022).

For test [1], the target named is T1, Human CLEC12A-His (recombinant, K244 WT) (human, UniProt Q5QGZ9 65-265).
T1 construct: Made in house (Dragonfly Tx); also called hCLEC12A; hCLEC12A-His; not shown: His tag
T1 sequence: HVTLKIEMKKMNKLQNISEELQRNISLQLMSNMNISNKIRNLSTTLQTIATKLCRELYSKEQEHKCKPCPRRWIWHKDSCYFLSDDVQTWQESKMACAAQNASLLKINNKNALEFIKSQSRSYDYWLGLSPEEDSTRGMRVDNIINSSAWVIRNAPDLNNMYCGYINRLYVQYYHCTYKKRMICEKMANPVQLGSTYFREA
The test can be described thus: SPR 37C, two-state fit (kd1), average.

The target in test [2] is T1, Human CLEC12A-His (recombinant, K244 WT). The test can be described thus: SPR, two-state fit (kd1); after pH 8, 40C, 2 wks.
The target in test [3] is T2, mFc-hNKG2D (recombinant mFc-tagged human NKG2D dimer) (human, UniProt P26718 73-216).
T2 construct: extracellular domain; Made in house; not shown: mouse Fc tag
T2 sequence (looked up): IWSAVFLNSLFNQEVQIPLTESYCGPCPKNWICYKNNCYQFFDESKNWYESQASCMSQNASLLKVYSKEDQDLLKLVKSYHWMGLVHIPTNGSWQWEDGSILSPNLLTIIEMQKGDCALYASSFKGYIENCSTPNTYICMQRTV
The test can be described thus: SPR 37C, mFc-hNKG2D captured, steady state fit.

In test [4] the target is T3, Human CLEC12A expressed on cells (Ba/F3-hCLEC12A, PL21, HL60) (human, UniProt Q5QGZ9 1-265).
T3 sequence: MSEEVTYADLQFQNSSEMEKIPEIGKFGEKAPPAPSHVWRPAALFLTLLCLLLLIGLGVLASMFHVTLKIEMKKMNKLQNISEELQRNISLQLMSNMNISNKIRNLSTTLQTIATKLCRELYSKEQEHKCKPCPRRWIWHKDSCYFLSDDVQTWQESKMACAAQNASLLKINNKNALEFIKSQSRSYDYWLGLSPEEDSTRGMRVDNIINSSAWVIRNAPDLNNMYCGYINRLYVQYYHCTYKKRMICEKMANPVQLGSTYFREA
Description: cell-based or functional assay.

The target of test [5] is T1, Human CLEC12A-His (recombinant, K244 WT). Description: SPR, untreated CLEC12A, two-state fit.
For test [6], the target named is T2, mFc-hNKG2D (recombinant mFc-tagged …). The test can be described thus: SPR; after pH 8, 40C, 2 wks (n = 2).
The target in test [7] is T1, Human CLEC12A-His (recombinant, K244 WT). Description: SPR, two-state fit (kd1); control sample.
For test [8] the target is unchanged. Description: SPR, two-state fit; after 4 wks 40C in CST pH 7.0.
For test [9] the target is unchanged. Description: SPR, two-state fit (ka1); after 4 wks 40C in CST pH 7.0.
Test [10] concerns the target T4, Human CD16a V158 (FcγRIIIa V158) (human, UniProt P08637 17-208, biotinylated).
T4 construct: Bought recombinant receptor; also called hCD16aV; hFcγRIIIa V158
Description: SPR; control sample.

Test [11] has as its target T2, mFc-hNKG2D (recombinant mFc-tagged …). Description: SPR; control sample.
Test [12] concerns the target T3, Human CLEC12A expressed on cells …. Description: flow cytometry on HL-60 AML cells.
In test [13] the target is T5, human CLEC12A on cells (HL60, PL21, Ba/F3-hCLEC12A) (human, UniProt Q5QGZ9 1-265).
T5 construct: Endogenous on the AML lines HL60 and PL21; brought into mouse Ba/F3 cells by retroviral transduction; The cell line stands under assay; also called CLL-1
T5 sequence: T3 sequence
The test can be described thus: flow cytometry, 40 nM, MFI after 2 h 37 C relative to 2 h on ice, PL21 cells.

The target of test [14] is T5, human CLEC12A on cells (HL60, PL21, …). Description: flow cytometry, HL-60 cells.
Another test addresses T6, Human CD64 (human, UniProt P12314 16-288, biotinylated).
T6 construct: Bought recombinant receptor; also called hFcγRI; Human CD64 (FcγRI)
Description: SPR, human CD64 captured.

Test [15] has as its target T5, human CLEC12A on cells (HL60, PL21, …). The test can be described thus: flow cytometry, PL21 cells.
In test [16] the target is T7, recombinant human CLEC12A-His (human, UniProt Q5QGZ9 65-265).
T7 construct: also called hCLEC12A-His; hCLEC12A
T7 sequence: T1 sequence
The test can be described thus: SPR 37C.

For test [17], the target named is T8, recombinant human CD32a R131 (human, UniProt P12318 36-218, limits assumed, biotinylated).
T8 construct: also called FcγRIIa R131
T8 sequence (looked up): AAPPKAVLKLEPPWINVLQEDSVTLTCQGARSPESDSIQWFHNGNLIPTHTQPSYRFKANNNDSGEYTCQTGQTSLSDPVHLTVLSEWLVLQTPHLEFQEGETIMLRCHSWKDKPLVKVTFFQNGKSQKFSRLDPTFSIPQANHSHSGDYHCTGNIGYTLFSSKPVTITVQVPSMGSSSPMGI
The test can be described thus: SPR 25C, steady state, average.

Residue numbers refer to the chain shown, from its start. In names and notes the source's numbering stands. Several values for one entry are separate records, joined by “and”; a condition that tells them apart may be missing. Equal values may be shown once.

T6 sequence (P12314 16-288 limits assumed): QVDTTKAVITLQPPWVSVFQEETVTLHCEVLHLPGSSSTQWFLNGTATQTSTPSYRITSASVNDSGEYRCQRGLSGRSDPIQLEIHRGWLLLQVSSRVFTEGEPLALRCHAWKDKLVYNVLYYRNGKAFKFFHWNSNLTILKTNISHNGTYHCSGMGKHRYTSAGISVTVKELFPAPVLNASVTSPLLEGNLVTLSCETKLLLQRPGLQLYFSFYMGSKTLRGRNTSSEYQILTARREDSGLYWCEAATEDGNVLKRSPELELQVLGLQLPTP
T4 sequence (P08637 17-208 F176V limits assumed): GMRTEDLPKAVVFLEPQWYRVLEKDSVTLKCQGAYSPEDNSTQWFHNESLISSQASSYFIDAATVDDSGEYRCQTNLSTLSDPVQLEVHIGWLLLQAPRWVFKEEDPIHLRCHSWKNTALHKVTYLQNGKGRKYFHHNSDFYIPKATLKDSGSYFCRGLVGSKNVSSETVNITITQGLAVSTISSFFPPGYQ

B1: AB0089 TriNKET (bispecific antibody, human IgG1, kappa)
chain: QLQLQESGPGLVKPSETLSLTCTVSGFSLTNYGLHWIRQPPGKCLEWIGVIWVGGATDYNPSLKSRVTISVDTSKNQFSLKLSSVQAADTAVYYCAKGDYGDTLDYWGQGTLVTVSSGGGGSGGGGSGGGGSGGGGSDIQMTQSPSSLSASVGDRVTITCHASQNINFWLSWYQQKPGKAPKLLIYEASNLHTGVPSRFSGSGSGTDFTLTISSLQPEDFATYYCQQSHSYPLTFGCGTKLEIKGSDKTHTCPPCPAPELLGGPSVFLFPPKPKDTLMISRTPEVTCVVVDVSHEDPEVKFNWYVDGVEVHNAKTKPREEQYNSTYRVVSVLTVLHQDWLNGKEYKCKVSNKALPAPIEKTISKAKGQPREPRVYTLPPCRDELTKNQVSLTCLVKGFYPSDIAVEWESNGQPENNYKTTPPVLVSDGSFTLYSKLTVDKSRWQQGNVFSCSVMHEALHNHYTQKSLSLSPG
heavy: EVQLVESGGGLVKPGGSLRLSCAASGFTFSSYSMNWVRQAPGKGLEWVSSISSSSSYIYYADSVKGRFTISRDNAKNSLYLQMNSLRAEDTAVYYCARGAPIGAAAGWFDPWGQGTLVTVSSASTKGPSVFPLAPSSKSTSGGTAALGCLVKDYFPEPVTVSWNSGALTSGVHTFPAVLQSSGLYSLSSVVTVPSSSLGTQTYICNVNHKPSNTKVDKKVEPKSCDKTHTCPPCPAPELLGGPSVFLFPPKPKDTLMISRTPEVTCVVVDVSHEDPEVKFNWYVDGVEVHNAKTKPREEQYNSTYRVVSVLTVLHQDWLNGKEYKCKVSNKALPAPIEKTISKAKGQPREPQVCTLPPSRDELTENQVSLTCLVKGFYPSDIAVEWESNGQPENNYKTTPPVLDSDGSFFLYSWLTVDKSRWQQGNVFSCSVMHEALHNHYTQKSLSLSPG
light: DIQMTQSPSSVSASVGDRVTITCRASQGISSWLAWYQQKPGKAPKLLIYAASSLQSGVPSRFSGSGSGTDFTLTISSLQPEDFATYYCQQGVSFPRTFGGGTKVEIKRTVAAPSVFIFPPSDEQLKSGTASVVCLLNNFYPREAKVQWKVDNALQSGNSQESVTEQDSKDSTYSLSSTLTLSKADYEKHKVYACEVTHQGLSSPVTKSFNRGEC
notes: F3' format heterodimer of three chains; human IgG1 Fc with EW-RVT and Y349C/S354C mutations; also called AB0089 Lot AB0089-002; CLEC12A TriNKET AB0089
With B1, the koff in test [1] was found to be 0.0435 s⁻¹; in test [2], 0.049 s⁻¹; in test [6], 0.127 s⁻¹; in [7], 0.042 s⁻¹; in [10], 0.0276 s⁻¹; in test [11] it was 0.135 s⁻¹. Moreover, the dissociation constant (Kd) is 873 nM and 894 nM and 885 nM in test [3]; 0.6 nM in test [5]; 983 nM in test [6]; 1 nM in [8]; 323 nM in test [10]; 772 nM in test [11]. Also, in [4], the “% Max, ADCP activity of M0 macrophages against PL21 cells” value was 15%. Further, in test [4], the “EC50, ADCP activity of M0 macrophages against PL21 cells” value was found to be 0.03 nM. Also, the kon in test [6] was found to be 130000 M⁻¹ s⁻¹; in test [9] it was 6.31e+06 M⁻¹ s⁻¹; in test [10], 85300 M⁻¹ s⁻¹; in test [11], 175000 M⁻¹ s⁻¹. This molecule also had a concentration giving a half-maximal response (EC50) in [12] of 0.74 nM.

B2: AB0192 TriNKET (other)
chain: EVQLVESGGGVVQPGGSLRLSCAASGFTFNAFGMHWVRQAPGKCLEWVAFISSGSTSIYYANTVKGRFTISRDNSKNTLYLQMNSLRAEDTAVYYCARDGYPTGGAMDYWGQGTSVTVSSGGGGSGGGGSGGGGSGGGGSDIQMTQSPSSLSASVGDRVTITCKASQDIYNYLSWFQQKPGKAPKPLIYRANILVSGVPSRFSGSGSGQDYTFTISSLQPEDIATYYCLQFDAFPFTFGCGTKLEIKGSDKTHTCPPCPAPELLGGPSVFLFPPKPKDTLMISRTPEVTCVVVDVSHEDPEVKFNWYVDGVEVHNAKTKPREEQYNSTYRVVSVLTVLHQDWLNGKEYKCKVSNKALPAPIEKTISKAKGQPREPRVYTLPPCRDELTKNQVSLTCLVKGFYPSDIAVEWESNGQPENNYKTTPPVLVSDGSFTLYSKLTVDKSRWQQGNVFSCSVMHEALHNHYTQKSLSLSPG
heavy: B1 heavy
light: B1 light
notes: the condition stands under assay; also called AB0192 Lot AB0192-005
In [13], B2 showed a percent surface retention of 101%. In addition, the midpoint of the response in [14], the EC50, lay at 0.6 nM. Also, in the test with Human CD64, the dissociation constant Kd is 6.1 nM and 5.5 nM and 3.5 nM; the off-rate (koff) was 0.00029 s⁻¹ and 0.00026 s⁻¹ and 0.00018 s⁻¹; the kon is 47000 M⁻¹ s⁻¹ and 52000 M⁻¹ s⁻¹. Also, in test [15], the half-maximal effective concentration (EC50) turned out to be 0.37 nM and the “FOB (fold over background)” value was 12 fold.

B3: F3'-1602 TriNKET (other)
chain: B1 chain with V53S, A56K, V71K, G98Y, G101D, T103S, D207R, F220I
heavy: B1 heavy
light: B1 light
notes: CLEC12A scFv-Fc, NKG2D A49MI Fab-Fc, human IgG1 Fc; also called AB0237
Turning to B3, the “fold lower KD than F3'-1295” value in [16] was roughly 2 fold. For the same molecule, the Kd in test [17] is 1400 nM.
